This note sets out measurements from patent publication US20150093802.

Holding throughout (experiment): one_hybrid
Series [1] relates to OZ135 (CF877R) (synthetic). The settings on record: bacterial two-hybrid lacZ, SD 0.07.
Series [2] deals with OZ136 (CF877R) (synthetic). As to conditions: bacterial two-hybrid lacZ, SD 0.06.
For series [3], the system named is OZ128 (CF877R) (synthetic). The settings on record: bacterial two-hybrid lacZ, SD 0.07.
In series [4] the test system is OZ125 (CF877R) (synthetic). As to conditions: bacterial two-hybrid lacZ, SD 0.85.
Series [5] relates to OZ124 (CF877R) (synthetic). The settings on record: bacterial two-hybrid lacZ, SD 0.20.
The subject of series [6] is OZ120 (CF877R) (synthetic). As to conditions: bacterial two-hybrid lacZ, SD 0.01.
For series [7], the system named is OZ141 (CF877R) (synthetic). The settings on record: bacterial two-hybrid lacZ, SD 0.08.
The test system of series [8] is OZ139 (CF877R) (synthetic). As to conditions: bacterial two-hybrid lacZ, SD 0.03.
In series [9] the test system is OZ127 (CF877R) (synthetic). As to conditions: bacterial two-hybrid lacZ, SD 0.02.
The test system of series [10] is OZ142 (CF877R) (synthetic). As to conditions: bacterial two-hybrid lacZ, SD 0.16.
Series [11] deals with OZ129 (CF877R) (synthetic). The settings on record: bacterial two-hybrid lacZ, SD 0.07.
Series [12] deals with OZ138 (CF877R) (synthetic). As to conditions: bacterial two-hybrid lacZ, SD 0.41.
Series [13] relates to OZ121 (CF877R) (synthetic). The settings on record: bacterial two-hybrid lacZ, SD 0.19.
For series [14], the system named is OZ133 (CF877R) (synthetic). The settings on record: bacterial two-hybrid lacZ, SD 0.05.
The subject of series [15] is OZ123 (CF877R) (synthetic). As to conditions: bacterial two-hybrid lacZ, SD 0.63.
Series [16] has as its system OZ134 (CF877R) (synthetic). The settings on record: bacterial two-hybrid lacZ, SD 0.19.
Series [17] has as its system OZ122 (CF877R) (synthetic). The settings on record: bacterial two-hybrid lacZ, SD 0.59.
The subject of series [18] is OZ126 (CF877R) (synthetic). As to conditions: bacterial two-hybrid lacZ, SD 0.28.
Series [19] concerns OZ130 (CF877R) (synthetic). As to conditions: bacterial two-hybrid lacZ, SD 0.22.
Series [20] concerns OZ140 (CF877R) (synthetic). The settings on record: bacterial two-hybrid lacZ, SD 0.48.
Series [21] relates to OZ137 (CF877R) (synthetic). As to conditions: bacterial two-hybrid lacZ, SD 0.04.
Series [22] deals with OZ119 (CF877R) (synthetic). As to conditions: bacterial two-hybrid lacZ, SD 0.35.
For series [23], the system named is OZ131 (CF877R) (synthetic). The settings on record: bacterial two-hybrid lacZ, SD 0.12.
Series [24] relates to OZ108 (CF877L) (synthetic). The settings on record: bacterial two-hybrid lacZ, SD 0.51.
Series [25] concerns OZ116 (CF877L) (synthetic). As to conditions: bacterial two-hybrid lacZ, SD 0.38.
For series [26], the system named is OZ109 (CF877L) (synthetic). As to conditions: bacterial two-hybrid lacZ, SD 0.20.
For series [27], the system named is OZ114 (CF877L) (synthetic). As to conditions: bacterial two-hybrid lacZ, SD 0.18.
For series [28], the system named is OZ110 (CF877L) (synthetic). The settings on record: bacterial two-hybrid lacZ, SD 0.15; marked + in table.
The test system of series [29] is OZ118 (CF877L) (synthetic). As to conditions: bacterial two-hybrid lacZ, SD 0.08.
The subject of series [30] is OZ107 (CF877L) (synthetic). The settings on record: bacterial two-hybrid lacZ, SD 0.58.
Series [31] deals with OZ112 (CF877L) (synthetic). The settings on record: bacterial two-hybrid lacZ, SD 0.55.
In series [32] the test system is OZ113 (CF877L) (synthetic). The settings on record: bacterial two-hybrid lacZ, SD 0.20.
Series [33] relates to OZ117 (CF877L) (synthetic). As to conditions: bacterial two-hybrid lacZ, SD 0.33.
In series [34] the test system is OZ111 (CF877L) (synthetic). As to conditions: bacterial two-hybrid lacZ, SD 1.90; marked + in table.
Series [35] concerns OZ115 (CF877L) (synthetic). As to conditions: bacterial two-hybrid lacZ, SD 0.12.

On to “GAGTGGTTA (double strand) [CF877R half-site]”, for which the activity (fold activation) came out at 2.25 in [1]; 2.16 in series [2]; 2.12 in [3]; 4 in series [4]; 4.41 in [5]; 2.53 in [6]. Moreover, the activity (fold activation) is 2.87 in series [7]; 2.74 in series [8]; 1.6 in series [9]; 2.73 in series [10]; 2.55 in [11]; 2.52 in series [12]. For the same sequence, the activity (fold activation) in [13] was found to be 2.91; in [14] it was 3.24; in [15] it was 5.03; in [16], 3.71; in [17] it was 4.72; in series [18] it was 2.57. Moreover, the activity (fold activation) in series [19] was 2.47; in series [20], 2.99; in series [21], 2.26; in series [22], 2.78; in series [23], 2.08.

As for “GTGGAATTA (double strand) [CF877L half-site]”, the activity (fold activation) in series [24] came to 2.31; in [25] it was 2.53; in [26] it was 2.83; in series [27] it was 2.95; in [28], 1.61; in series [29], 3.55. Besides, the activity (fold activation) was found to be 1.92 in [30]; 2.52 in series [31]; 1.61 in [32]; 3.87 in series [33]; 2.2 in [34]; 2.71 in series [35].
